The values that follow come from CN112980851A.

For the experiment, the target named is CD20 (UniProt P11836). Put plainly: cell-based or functional assay.
Chain of UniProt P11836 (P11836 whole entry): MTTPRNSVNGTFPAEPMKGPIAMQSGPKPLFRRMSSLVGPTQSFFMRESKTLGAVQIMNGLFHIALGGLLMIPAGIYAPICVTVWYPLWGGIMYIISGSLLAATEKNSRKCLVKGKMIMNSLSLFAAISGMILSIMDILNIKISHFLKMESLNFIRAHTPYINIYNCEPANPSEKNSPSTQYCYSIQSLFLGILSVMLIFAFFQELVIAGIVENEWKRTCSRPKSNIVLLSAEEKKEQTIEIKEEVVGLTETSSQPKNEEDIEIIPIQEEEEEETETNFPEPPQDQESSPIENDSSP

For the substance Rituximab (antibody), the ADCC on Raji cells with NK92MI-CD16a effector cells (LDH release), EC50(ng/mL) came to 0.607 ng/mL and the CDC on Raji cells with human serum complement (LDH release), EC50(ng/mL) was found to be 210 ng/mL.
